Series [1] relates to VchCAST RNA-guided transposition machinery (E. coli BL21(DE3) host, lacZ target). Briefly: relative integration efficiency (T-LR orientation) vs wild-type transposon end (log2 (normalized fold change)); transposon end mutated: left end; higher = more efficient transposition. The essentials:
(§1)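 In E. coli BL21(DE3), a T7-driven effector plasmid was paired with a pUC57 mini-transposon donor containing 1549 left-end or 1849 right-end barcoded transposon variants. Cells grew on plates with 0.1 mM IPTG at 37°C for 18 h. Relative integration efficiency was derived from Illumina reads of genomic integration junctions against input plasmids, as a log-transformed output/input barcode fold change normalised to reference barcodes.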

Series [2] shares this test system. Briefly: relative integration efficiency (T-RL orientation) vs wild-type transposon end (log2 (normalized fold change)); transposon end mutated: left end; higher = more efficient transposition. The essentials: as §1

± gives the standard deviation of the averaged measurements.

Take “AATGTTGTTGATGCAACCATCCCTGTCGCGGGCCGCCGGCGGGCGCCGACTACCAGGCCAACACCCCACCAACGCGCGGTCGCGAGACACCCCACCAACGCCTGGTCGCGGGGGTGTCCGATCTGATTTCAGCAAAACTACTGCAGTAAGAA”: the figures for the “relative integration efficiency (log2)” value in series [1] and in series [2] were -9.26 ± 0.31 and below -10, respectively.
Consider “AATGTTGTTGATGCACCCATAAATTGATAATTAATAATTATTTATAATCAGCAACTTAACCACAAAACAACCATAAAATGATAATTAACAAAAGTTGGTATTCAACTATAAAATGTGAATCGAGTATTTCAGCAAAACTACTGCAGTAAGAA”, for which the “relative integration efficiency (log2)” value in series [1] is -0.947 ± 1.4; in series [2], -2.86 ± 1.1.
As to “AATGTTGTTGATGCACCCATAAATTGATAATTAATAATTATTTATAATCAGCAACTTAACCACAAAACAACCATAAAGTGATATTTAACAAAAGTTGGTATTCAACTATAAAATGTGAATCGAGTATTTCAGCAAAACTACTGCAGTAAGAA”, the “relative integration efficiency (log2)” value in series [1] is -1.55 ± 1.7; in series [2], -2.92 ± 1.1.
As for “AATGTTGTTGATGCACCCATAAATTGATAATTAATAATTATTTATAATCAGCAACTTAACCACAAAACAACCATAAGTTGATATTTTACAAAAGTTGGTATTCAACTATAAAATGTGAATCGAGTATTTCAGCAAAACTACTGCAGTAAGAA”, the “relative integration efficiency (log2)” value in series [1] is -1.17 ± 0.98; in series [2], -3.01 ± 1.1.
With “AATGTTGTTGATGCACCCATAAATTGATAATTAATAATTATTTATAATCAGCAACTTAACCACAAAACAACCATATATTGATATCTCACAAAAGTTGGTATTCAACTATAAAATGTGAATCGAGTATTTCAGCAAAACTACTGCAGTAAGAA”, the “relative integration efficiency (log2)” value in series [1] was -1.82 ± 1.9; in series [2] it was -2.76 ± 1.1.
As to “AATGTTGTTGATGCACCCATAAATTGATAATTAATAATTATTTATAATCAGCAACTTAACCACAAAACACCCATAAATTGATAATTAACAAAAGTTGGTATTCAACTATAAAATGTGAATCGAGTATTTCAGCAAAACTACTGCAGTAAGAA”, the “relative integration efficiency (log2)” value was -1.11 ± 1.5 in series [1] and -2.87 ± 0.73 in series [2].
Regarding “AATGTTGTTGATGCACCCATAAATTGATAATTAATAATTATTTATAATCAGCAACTTAACCACAAAACACCCATAAATTGATATTGCACAAAAGTTGGTATTCAACTATAAAATGTGAATCGAGTATTTCAGCAAAACTACTGCAGTAAGAA”, the “relative integration efficiency (log2)” value is -1.72 ± 0.67 in series [1] and -3.68 ± 1.4 in series [2].
Consider “AATGTTGTTGATGCACCCATAAATTGATATTGCATAATTATTTATAATCAGCAACTTAACCACAAAACAACCATAAAATGATAATTAACAAAAGTTGGTATTCAACTATAAAATGTGAATCGAGTATTTCAGCAAAACTACTGCAGTAAGAA”, for which the “relative integration efficiency (log2)” value is -1.26 ± 0.57 in series [1] and -3.11 ± 1.5 in series [2].
With “AATGTTGTTGATGCACCCATAAATTGATATTGCATAATTATTTATAATCAGCAACTTAACCACAAAACAACCATAAAGTGATATTTAACAAAAGTTGGTATTCAACTATAAAATGTGAATCGAGTATTTCAGCAAAACTACTGCAGTAAGAA”, the “relative integration efficiency (log2)” value in series [1] was -1.73 ± 0.93; in series [2] it was -3.26 ± 1.
Take “AATGTTGTTGATGCACCCATAAATTGATATTGCATAATTATTTATAATCAGCAACTTAACCACAAAACAACCATAAGTTGATATTTTACAAAAGTTGGTATTCAACTATAAAATGTGAATCGAGTATTTCAGCAAAACTACTGCAGTAAGAA”: the “relative integration efficiency (log2)” value was -1.34 ± 1.4 in series [1] and -3.46 ± 1.6 in series [2].
The matching figures for “AATGTTGTTGATGCACCCATAAATTGATATTGCATAATTATTTATAATCAGCAACTTAACCACAAAACAACCATATATTGATATCTCACAAAAGTTGGTATTCAACTATAAAATGTGAATCGAGTATTTCAGCAAAACTACTGCAGTAAGAA”: -1.64 ± 1.3 and -3.48 ± 0.92.
Turning to “AATGTTGTTGATGCACCCATAAATTGATATTGCATAATTATTTATAATCAGCAACTTAACCACAAAACACCCATAAATTGATAATTAACAAAAGTTGGTATTCAACTATAAAATGTGAATCGAGTATTTCAGCAAAACTACTGCAGTAAGAA”, the “relative integration efficiency (log2)” value in series [1] is -1.55 ± 1.2; in series [2], -3.57 ± 1.4.
Turning to “AATGTTGTTGATGCACCCATAAATTGATATTGCATAATTATTTATAATCAGCAACTTAACCACAAAACACCCATAAATTGATATTGCACAAAAGTTGGTATTCAACTATAAAATGTGAATCGAGTATTTCAGCAAAACTACTGCAGTAAGAA”, the figures for the “relative integration efficiency (log2)” value in series [1] and in series [2] were -2.41 ± 2 and -4.32 ± 0.9, respectively.
For the sequence “AATGTTGTTGATGGTTGGTATTTCACTATAAATATAATTATTTATAATCAGCAACTTAACCACAAAAGTTGGTATATAACTATAGAGACAAAAGTTGGTATTCAACTATAAAATGTGAATCGAGTATTTCAGCAAAACTACTGCAGTAAGAA”, the results for the “relative integration efficiency (log2)” value in series [1] and in series [2] were below -10 and -8.52 ± 0.29, respectively.
The matching figures for “AATGTTGTTGATGTAATTATCATTTTATGGTTGATAATTATTTATAATCAGCAACTTAACCACAAAACAACCATAAAATGATAATTAACAAAATAATTATCATTTTATGGTTGTGTGAATCGAGTATTTCAGCAAAACTACTGCAGTAAGAA”: below -10 and -7.72 ± 0.59.
The matching figures for “AATGTTGTTGATGTAATTATCATTTTATGGTTGATAATTATTTATAATCAGCAACTTAACCACAAAACAACCATAAAATGATAATTATTTTGTCAACCATAAAATGATAATTATGTGAATCGAGTATTTCAGCAAAACTACTGCAGTAAGAA”: below -10 and -8.78 ± 0.35.
For the sequence “AATGTTGTTGATGTAATTATCATTTTATGGTTGATAATTATTTATAATCAGCAACTTAACCACAAAATAATTATCATTTTATGGTTGACAAAATAATTATCATTTTATGGTTGTGTGAATCGAGTATTTCAGCAAAACTACTGCAGTAAGAA”, the “relative integration efficiency (log2)” value in series [1] and in series [2] was below -10 throughout.
Regarding “AATGTTGTTGATGTCAACCATAAAGTGATATTTAATAATTATTTATAATCAGCAACTTAACCACAAAACAACCATATATTGATATCTCACAAAACAACCATAAGTTGATATTTTTGTGAATCGAGTATTTCAGCAAAACTACTGCAGTAAGA”, the “relative integration efficiency (log2)” value in series [1] is -0.718 ± 0.039; in series [2], -0.694 ± 0.2.
As to “AATGTTGTTGATGTGCAACCATAAAGTGATATTTAATAATTATTTATAATCAGCAACTTAACCACAAAACAACCATATATTGATATCTCACAAAACAACCATAAGTTGATATTTTTGTGAATCGAGTATTTCAGCAAAACTACTGCAGTAAG”, the “relative integration efficiency (log2)” value in series [1] was below -10; in series [2], -6.45 ± 0.8.
“AATGTTGTTGATGTGTCAACCATAAAGTGATATTTAATAATTATTTATAATCAGCAACTTAACCACAAAACAACCATATATTGATATCTCACAAAACAACCATAAGTTGATATTTTTGTGAATCGAGTATTTCAGCAAAACTACTGCAGTAA”: the “relative integration efficiency (log2)” value in series [1] is -2.19 ± 1.3; in series [2], -1.14 ± 0.25.
Take “AATGTTGTTGATGTGTTCAACCATAAAGTGATATTTAATAATTATTTATAATCAGCAACTTAACCACAAAACAACCATATATTGATATCTCACAAAACAACCATAAGTTGATATTTTTGTGAATCGAGTATTTCAGCAAAACTACTGCAGTA”: the “relative integration efficiency (log2)” value in series [1] is below -10; in series [2], -6.33 ± 0.89.
The matching figures for “AATGTTGTTGATGTGTTGATGCAACCATAAAGTGATATTTAATAATTATTTATAATCAGCAACTTAACCACAAAACAACCATATATTGATATCTCACAAAACAACCATAAGTTGATATTTTTGTGAATCGAGTATTTCAGCAAAACTACTGC”: -0.829 ± 0.034 and -0.31 ± 0.015.
For the sequence “AATGTTGTTGATGTGTTGCAACCATAAAGTGATATTTAATAATTATTTATAATCAGCAACTTAACCACAAAACAACCATATATTGATATCTCACAAAACAACCATAAGTTGATATTTTTGTGAATCGAGTATTTCAGCAAAACTACTGCAGT”, the entries for the “relative integration efficiency (log2)” value in series [1] and in series [2] were below -10 and -6.86 ± 1.7, respectively.
Regarding “AATGTTGTTGCAACCATAAAGTGATATTTAATAATTATTTATAATCAGCAACTTAACCACAAAACAACCATATATTGATATCTCACAAAACAACCATAAGTTGATATTTTTGTGAATCGAGTATTTCAGCAAAACTACTGCAGTAAGAAAGT”, the “relative integration efficiency (log2)” value in series [1] was -1.44 ± 0.11; in series [2], -0.203 ± 0.26.
As to “TTTTGTGTTGAAACAACCATAAAGTGATAACAAATAATTATTTATAATCAGCAACTTAACCACAAAACAACCATATCTTGATATCGCATAAAACAACCATAAGTTGATATTTTGGTGAAAAGGATATTCCAACCTTCATAGTTTAGTAAGAA”, the entries for the “relative integration efficiency (log2)” value in series [1] and in series [2] were -1.23 ± 0.8 and -0.416 ± 0.29, respectively.
For the sequence “TTTTGTGTTGAAACAACCATAAAGTGATAACAACGAATCAATTAAAATCATAGGCTTAATCGAAAAACAACCATATATTGATATCTCATAAAACAACCATAAGTTGATATTTTGGTGAAAAGGATATTCCAACCTTCATAGTTTAGTAAGAA”, the figures for the “relative integration efficiency (log2)” value in series [1] and in series [2] were 0.0938 ± 0.43 and 0.184 ± 0.29, respectively.
Regarding “TTTTGTGTTGAAACAACCATAAAGTGATAACAACGAATCAATTAAAATCATAGGCTTAATCGAAAAACAACCATATCTTGATATCGCACAAAACAACCATAAGTTGATATTTTGGTGAAAAGGATATTCCAACCTTCATAGTTTAGTAAGAA”, the entries for the “relative integration efficiency (log2)” value in series [1] and in series [2] were -0.749 ± 0.52 and -0.684 ± 0.39, respectively.
The matching figures for “TTTTGTGTTGAAACAACCATAAAGTGATAACAACGAATCAATTAAAATCATAGGCTTAATCGAAAAACAACCATATCTTGATATCGCATAAAACAACCATAAGTTGATATTTTGGTGAAAAGGATATTCCAACCTTCATAGTTTAGTAAGAA”: -0.599 ± 0.63 and -0.363 ± 0.32.
Consider “TTTTGTGTTGAAACAACCATAAAGTGATAACAACGAATCAATTAAAATCATAGGCTTAATCGAAAAACAACCATATCTTGATATCGCATAAAACAACCATAAGTTGATATTTTGGTGAAACGAGTATTTCAGCAAAACTACTGCAGTAAGAA”, for which the “relative integration efficiency (log2)” value in series [1] is -1.04 ± 0.28; in series [2] it was -0.949 ± 0.35.

For the origin of these results see the supplement of paper PMC10201428.
